Literature values in paper PMC6705211.
Like-named read-outs stand apart in the source and are kept apart here.

Tests used:
[1] = molecular target: H3K9me3 (UniProt P68431)
[2] = molecular target: H3K9me3 (UniProt P68431); remark: listed apart in the source
[3] = molecular target: H3K9me3 (UniProt P68431); remark: listed apart in the source
[4] = molecular target: H3K9me3 (UniProt P68431); remark: listed apart in the source

Sequence of HP1a chromodomain (P05205 24-82): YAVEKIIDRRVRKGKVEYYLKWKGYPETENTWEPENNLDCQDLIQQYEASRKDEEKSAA
Sequence of HP1β (P83916 whole entry): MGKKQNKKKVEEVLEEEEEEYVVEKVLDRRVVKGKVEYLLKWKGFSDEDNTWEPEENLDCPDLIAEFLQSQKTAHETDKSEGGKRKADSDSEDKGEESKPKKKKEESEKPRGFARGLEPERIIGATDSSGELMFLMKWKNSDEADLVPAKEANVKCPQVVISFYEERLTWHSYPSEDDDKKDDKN
Sequence of HP1α chromodomain (P45973 20-78): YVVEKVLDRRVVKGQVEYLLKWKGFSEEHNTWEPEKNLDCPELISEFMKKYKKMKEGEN
Sequence of HP1γ (Q13185 2-183): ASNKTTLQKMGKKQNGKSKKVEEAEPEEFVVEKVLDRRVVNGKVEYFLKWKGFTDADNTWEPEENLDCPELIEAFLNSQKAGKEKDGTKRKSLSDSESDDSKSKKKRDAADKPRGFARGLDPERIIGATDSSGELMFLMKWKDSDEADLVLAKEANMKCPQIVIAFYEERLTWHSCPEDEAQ

## HP1β (from UniProt P83916)
[1]
  Kd: 3 µM

## HP1α chromodomain (from UniProt P45973)
[2]
  Kd: 13 µM

## HP1γ (from UniProt Q13185)
[3]
  Kd: 7 µM

## HP1a chromodomain (from UniProt P05205)
[4]
  Kd: 4 µM
